Data taken from PMC5173319 (2016).

Legend:
[1] = target: T1, Pyrobaculum calidifontis crenactin (Pyrobaculum calidifontis, UniProt A3MWN5 1-432); assay: SPR; fast phase
[2] = target: T1, Pyrobaculum calidifontis crenactin; assay: SPR; slow phase
[3] = target: T1, Pyrobaculum calidifontis crenactin; assay: SPR; fast phase; remark: listed apart in the source
[4] = target: T1, Pyrobaculum calidifontis crenactin; assay: SPR; slow phase; remark: listed apart in the source
[5] = target: T1, Pyrobaculum calidifontis crenactin; assay: SPR
[6] = target: T1, Pyrobaculum calidifontis crenactin; assay: SPR; remark: listed apart in the source

T1 sequence (A3MWN5 whole entry): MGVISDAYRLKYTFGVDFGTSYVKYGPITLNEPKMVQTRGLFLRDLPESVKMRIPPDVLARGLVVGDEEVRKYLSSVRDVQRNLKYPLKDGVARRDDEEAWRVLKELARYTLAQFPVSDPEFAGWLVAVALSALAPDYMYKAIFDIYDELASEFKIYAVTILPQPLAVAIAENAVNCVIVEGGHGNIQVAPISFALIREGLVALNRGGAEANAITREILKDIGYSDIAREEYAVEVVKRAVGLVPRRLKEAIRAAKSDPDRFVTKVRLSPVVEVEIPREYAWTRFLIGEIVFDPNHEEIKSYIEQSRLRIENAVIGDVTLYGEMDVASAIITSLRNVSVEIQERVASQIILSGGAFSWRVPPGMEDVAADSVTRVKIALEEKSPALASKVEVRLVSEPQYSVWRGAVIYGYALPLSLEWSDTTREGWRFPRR

B1: Pyrobaculum calidifontis arcadin-2 (natural protein)
chain: MDFPKVLLIRHFTEVLGMKYAGEGGEVLWFEEGLNRVAVGIYFTDLYEEAELYKRVGALMGLGASKVFLAVLPDALAFVDPRYFKANGVGLVVVDPAKGVDGVEVKIFARARPAAVEPLKIDAVKAALHEYLASELKRVEESLFEKVRRYVDQRVEEVKRALQAVEEAKRAAPPVQRAAAESAQEPRGGIGENEWVKILRSKR
- Kd [1]: 24 nM
- Kd [2]: 59 nM
- koff [3]: 0.019 s⁻¹
- koff [4]: 0.0034 s⁻¹

Binder: RGGIGENEWVKILRSKR [arcadin-2 C-terminal peptide (residues 187-203)]
- Kd [5]: 9 nM
- koff [6]: 0.019 s⁻¹
